Assay results as given in US20170101472A1 (Regeneron, published 2017).

T1: cynomolgus LAG3 on activated CD4+ and CD8+ cynomolgus T cells (cynomolgus)
T1 chain: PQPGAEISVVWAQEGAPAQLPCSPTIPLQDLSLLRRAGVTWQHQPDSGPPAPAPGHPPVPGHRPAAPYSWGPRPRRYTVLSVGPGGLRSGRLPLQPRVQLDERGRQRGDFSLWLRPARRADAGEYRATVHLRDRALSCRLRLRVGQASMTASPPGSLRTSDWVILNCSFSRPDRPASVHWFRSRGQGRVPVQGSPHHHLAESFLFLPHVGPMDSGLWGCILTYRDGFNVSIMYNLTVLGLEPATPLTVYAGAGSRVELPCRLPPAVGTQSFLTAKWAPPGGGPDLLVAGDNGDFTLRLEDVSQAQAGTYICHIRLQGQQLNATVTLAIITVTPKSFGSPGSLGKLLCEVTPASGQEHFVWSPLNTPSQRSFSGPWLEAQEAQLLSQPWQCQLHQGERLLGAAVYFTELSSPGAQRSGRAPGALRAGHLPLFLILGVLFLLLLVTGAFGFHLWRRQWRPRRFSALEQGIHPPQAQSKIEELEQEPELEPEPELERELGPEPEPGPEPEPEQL


Key:
[1] = molecular target: T1, cynomolgus LAG3 on activated CD4+ and …; assay: FACS, stimulated cynomolgus CD8+ T cells, donor 2
Protocol: (§1) Next, stimulated cynomolgus T-cells from each donor, as described above, were stained with LIVE/DEAD dye (Molecular Probes) to distinguish between live and dead cells via FACS. Subsequently, cells were co-incubated with PE-conjugated anti-CD8 and FITC-conjugated anti-CD4 for 15 min on ice to enable the detection of CD4 and CD8 positive and negative cell populations.
(§2) Next, the serially diluted antibodies were directly labeled using Zenon Alexa-Fluor 647 (Molecular Probes) and incubated with the cynomolgus CD4+/CD8+ T-cell suspension for 15-30 min on ice. Cells were centrifuged and pellets washed with staining buffer to remove unbound antibodies and fixed for 12 h with a 1:1 dilution of Cytofix (BD Biosciences) and staining buffer. Following the incubation period, fixation buffer was removed and pellets were resuspended in staining buffer, filtered, and used for fluorescence measurements.
(§3) Fluorescence measurements were acquired on the Fortessa (Becton Dickinson) and data analyzed in FlowJo to determine the mean fluorescence intensities (MFI). EC₅₀ values were calculated from a four-parameter logistic equation over an 11-point response curve using GraphPad Prism.

[2] = molecular target: T1, cynomolgus LAG3 on activated CD4+ and …; assay: FACS, stimulated cynomolgus CD4+ T cells, donor 1
Protocol: as §1, §2, §3

[3] = molecular target: T1, cynomolgus LAG3 on activated CD4+ and …; assay: FACS, stimulated cynomolgus CD8+ T cells, donor 1
Protocol: as §1, §2, §3

[4] = molecular target: T1, cynomolgus LAG3 on activated CD4+ and …; assay: FACS, stimulated cynomolgus CD4+ T cells, donor 2
Protocol: as §1, §2, §3

EC50 [1]	Ratio of MFI (11 nM/0 nM) [1]	EC50 [2]	Ratio of MFI (11 nM/0 nM) [2]	EC50 [3]	Ratio of MFI (11 nM/0 nM) [3]	EC50 [4]	Ratio of MFI (11 nM/0 nM) [4]	Binder
0.11 nM	6.3	0.42 nM	1.3	0.085 nM	3.5	0.22 nM	1.5	H4sH14813N (antibody, human IgG4 S228P, kappa, V domains shown, H4sH = modified human IgG4 Fc) VH: QVQLQQWGAGLLKPSETLSLTCAVYGGSFSGYYWNWIRQPPGKGLEWVGEISHRGSTNYNPSLKSRVTISLDTSKNQFSLKLTSVTAADTAVYYCSRDEELEFRFFDYWGQGTLVTVSS VL: EIVLTQSPATLSLSPGERATLSCRASQSVSSYLAWYQQKPGQAPRLLVYGASNRATGIPARFSGSGSGTDFTLTISSLEPEDFAFYYCQQRSNWPLTFGGGTKVEIKR
0.41 nM		1.2 nM		0.46 nM		0.38 nM		H4sH15482P (antibody, human IgG4 S228P, kappa, H4sH = modified human IgG4 Fc; also called mAb1) heavy: QVQLVESGGGVVQPGRSLRLSCVASGFTFSSYGMHWVRQAPGKGLEWVAIIWYDGSNKYYADSVKGRFTISRDNSKNTQYLQMNSLRAEDTAVYYCASVATSGDFDYYGMDVWGQGTTVTVSSASTKGPSVFPLAPCSRSTSESTAALGCLVKDYFPEPVTVSWNSGALTSGVHTFPAVLQSSGLYSLSSVVTVPSSSLGTKTYTCNVDHKPSNTKVDKRVESKYGPPCPPCPAPPVAGPSVFLFPPKPKDTLMISRTPEVTCVVVDVSQEDPEVQFNWYVDGVEVHNAKTKPREEQFNSTYRVVSVLTVLHQDWLNGKEYKCKVSNKGLPSSIEKTISKAKGQPREPQVYTLPPSQEEMTKNQVSLTCLVKGFYPSDIAVEWESNGQPENNYKTTPPVLDSDGSFFLYSRLTVDKSRWQEGNVFSCSVMHEALHNHYTQKSLSLSLGK light: EIVLTQSPATLSLSPGERTTLSCRASQRISTYLAWYQQKPGQAPRLLIYDASKRATGIPARFSGSGSGTGFTLTISSLEPEDFAVYYCQQRSNWPLTFGGGTKVEIKRTVAAPSVFIFPPSDEQLKSGTASVVCLLNNFYPREAKVQWKVDNALQSGNSQESVTEQDSKDSTYSLSSTLTLSKADYEKHKVYACEVTHQGLSSPVTKSFNRGEC
